Reference: the nanobody polyreactivity screen of Harvey et al. (2022)

Assay: yeast display, Sf9 membrane polyspecificity reagent, FACS + sequencing; frameworks hold sequencing errors
In short: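 A nanobody's polyreactivity label depends on the gate it was sorted from. Yeast display cells were stained with 10% biotinylated, detergent-solubilized Sf9 membrane reagent for 1 hour at 4 °C, enriched on streptavidin microbeads and sorted by FACS. The low and high (top ~1%) gates were set on anti-HA fluorescence for expression and streptavidin fluorescence for reagent binding.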
For “QVQLVESGGGLVQAGGSLRLSCAASGFTTRSYAMGWYRQAPGKERELVAAISFSGGRTYYADSVKGRFTISRDNAKNTVYLQMNSLKPEDTAVYYCNARAYTRYSLLDYWGQGTQVTVSS”, the “polyreactivity (PSR sort gate)” value was “high polyreactivity”. In the case of “QVQLVESGGGLVQAGGSLRLSCAASGFTVGYAMGWYRQAPGKERELVAAITRGGGTRTSYADSVKGRFTISRDNAKNTVYLQMNSLKPEDTAVYYCAARRWWSPRTQYDYWGQGTQVTVSS”, the “polyreactivity (PSR sort gate)” value is reported as “high polyreactivity”. With “QVQLVESGGGLVQAGGSLRLSCAASGFTYFYYAMGSYRQAPGKERELVASISWSGGSTYYADSVKGRFTISRDNAKNTVYLQMNSLKPEDTAVYYCAADVPFGGDYWGQGTQVTVSS” the “polyreactivity (PSR sort gate)” value was “low polyreactivity”. For “QVQLVESGGGLVQAGGSLRLSCAASGFTYYWNAMGWYRQAPGKERELVAAINWRGTSTYYADSVKGRFTISRDNAKNTVYLQMNSLKPEDTAVYYCNTYGYVEYDWGQGTQVTVSS”, the “polyreactivity (PSR sort gate)” value was “high polyreactivity”. With “QVQLVESGGGLVQAGGSLRLSCAASGFYLNAMGWYRQAPGKERELVATITSSATNTYYADSVKGRFTISRDNAKNTVYLQMNSLKPEDTAVYYCNARYTSHTHADGVYLYDYWGQGTQVTVSS” the “polyreactivity (PSR sort gate)” value was “low polyreactivity”. With “QVQLVESGGGLVQAGGSLRLSCAASGGIFAANAMGWYRQAPGTERELVAAITSVGSTYADSVKGRFTISRDNAKNTVYLQMNSLKPEDTAVSYCAADTESVIVWYEDDYWGQGTQVTVSS” the “polyreactivity (PSR sort gate)” value was “low polyreactivity”. For “QVQLVESGGGLVQAGGSLRLSCAASGGIFAIYAMGWYRQAPGKEREFVATISWRGGSTYYADSVKGRFTISRDNAKNTVYLQMNSLKPEDTAVYYCAAPHFSYSGGTHDYWGQGTQVTVSS”, the “polyreactivity (PSR sort gate)” value was “high polyreactivity”. In the case of “QVQLVESGGGLVQAGGSLRLSCAASGGIFAPYAMGWYRQAPGKERELVADITSDGGSTYYADSVKGRFTISRDNAKNTVYLQMNSLKPEDTAVYYCAAEQRYWWWGHPGDYWGQGTQVTVSS”, the “polyreactivity (PSR sort gate)” value is reported as “low polyreactivity”. With “QVQLVESGGGLVQAGGSLRLSCAASGGIFASNAMGWYRQAPGKERELVATITRGGSTNYADSVKGRFTISRDNAKNTVYLQLNSLKPEDTAVYYCAARFYSRAFWPAYYYWGQGTQVTVSS” the “polyreactivity (PSR sort gate)” value was “high polyreactivity”. For “QVQLVESGGGLVQAGGSLRLSCAASGGIFAYNAMGWYRQAPGKERELVATISSGVSTNYADSVKGRFTISRDNAKNTVYLPMNSLKPEDTAVYDCAAAIFITGYGSYGYWGQGTQVTVSS”, the “polyreactivity (PSR sort gate)” value was “low polyreactivity”. In the case of “QVQLVESGGGLVQAGGSLRLSCAASGGIFAYYGMGWYRQAPGKERELVAAIWIGGNTYYADSVKGRFTISRDNAKNTVYLQMNSLKPEDTAVYDCAAAGSAYYSTRKWDSYYYWGQGTQVTVSS”, the “polyreactivity (PSR sort gate)” value is reported as “low polyreactivity”. With “QVQLVESGGGLVQAGGSLRLSCAASGGIFAYYTMGLYTQDHGKERELVAAISTSSVNTYYADSVKGRFTISRDNAKHTVYLQMNSLKQEVNAVYYCAAEVYYGYDYCGQGTQVTVSS” the “polyreactivity (PSR sort gate)” value was “low polyreactivity”. For “QVQLVESGGGLVQAGGSLRLSCAASGGIFDNYAMGWYRQAPGKEREFVAVISSGGTTNYADSVKGRFTISRVNAKNTVYLQMNSLKPEDTAVYYCAADYDYRQGYDSVHLDYWGQGTQVTVSS”, the “polyreactivity (PSR sort gate)” value was “low polyreactivity”. With “QVQLVESGGGLVQAGGSLRLSCAASGGIFDRYAMGWYRPAPGKERELVAGITWSGGRTYYADSVKGRFTISRDNAKNTVYLQMNSLKPEDTAVYYCAASLYTWTYQPVYYRDGYWGQGTQVTVSS” the “polyreactivity (PSR sort gate)” value was “low polyreactivity”. In the case of “QVQLVESGGGLVQAGGSLRLSCAASGGIFDRYAMGWYRQAPGKERELVAAITSGGSTNYADSVKGRFTISRDNAKNTVYLQMNSLKPEDNAVYYCAAVESSYEAWYTYYYWGQGTQVTVSS”, the “polyreactivity (PSR sort gate)” value is reported as “low polyreactivity”. In the case of “QVQLVESGGGLVQAGGSLRLSCAASGGIFESYAMGWYRQAPGKERELVASISSGGSTYYADSVKGRFTISRDNAKNTVYLQMNSLKPEDTAVYYCEYYYWGQGTQVTVSS”, the “polyreactivity (PSR sort gate)” value is reported as “low polyreactivity”. For “QVQLVESGGGLVQAGGSLRLSCAASGGIFFYNAMGWYRQAPGKERELVAAISTGGGRTYYADSVKGRFTISRDNAKNTVYLQMNSLKPEDTAVYYCAKDKQDYEYWGQGTQVTVSS”, the “polyreactivity (PSR sort gate)” value was “low polyreactivity”. In the case of “QVQLVESGGGLVQAGGSLRLSCAASGGIFGFNAMGWYRQAPGKERELVADISDGVRTNYADSVKGRFTISRDNAKNTVFLQMNSLKPEDTAVYYCATDGLFYVDGSWTLGYWGQGTQVTVSS”, the “polyreactivity (PSR sort gate)” value is reported as “low polyreactivity”. For “QVQLVESGGGLVQAGGSLRLSCAASGGIFGHNAMGWYRQAPGKERELVAAISYTGGSTYYADSVKGRFTISRDNAKNTVYLQMNSLKPEDTAVYYCNAVQRRFRYPFDYWGQGTQVTVSS”, the “polyreactivity (PSR sort gate)” value was “low polyreactivity”. In the case of “QVQLVESGGGLVQAGGSLRLSCAASGGIFGSYAMGWYRQAPGKERELVAAISWTGGSTYYADSVKGRFTISRDTAKNTVYLQMNSLKREDTAVYYCNADTYRRAQLRFNSWGQGTQVTVSS”, the “polyreactivity (PSR sort gate)” value is reported as “low polyreactivity”. In the case of “QVQLVESGGGLVQAGGSLRLSCAASGGIFGTNDMGWYRQAPGKERELVAAITSDSGSTYYADSVKGRFTISRDNAKNTVYLQMNSLKPEDTAVYYCAAEDGPWFYRYGYWGQGTQVTVSS”, the “polyreactivity (PSR sort gate)” value is reported as “low polyreactivity”. With “QVQLVESGGGLVQAGGSLRLSCAASGGIFGYYAMGWYRQAPGKERELVAAITLSGGRTYYADSVKGRFTISRDNAKNTVYLQMNSLKPEDTAVYYCAAKGTRRGKERNYWGQGTQVTVSS” the “polyreactivity (PSR sort gate)” value was “high polyreactivity”. In the case of “QVQLVESGGGLVQAGGSLRLSCAASGGIFGYYVMGWYRQAPGKERELVAAITSGGGTNYADSVKGRFTISRDNAKNTVYLQMNSLKPEDTAVYYCAAVYVRHRFGRFGYWGQGTQVTVSS”, the “polyreactivity (PSR sort gate)” value is reported as “low polyreactivity”. In the case of “QVQLVESGGGLVQAGGSLRLSCAASGGIFIGYAMGWYRQAPGKERELVAAISYSGGSTYYADSVKGRFTISRDNAKNTVYFQMNSLKPEDTALYYCAAQVERKYRWFNSWGQGTQVTVSS”, the “polyreactivity (PSR sort gate)” value is reported as “high polyreactivity”. In the case of “QVQLVESGGGLVQAGGSLRLSCAASGGIFKSYAMGWYRQAPGKERELVAAISASGGRTYYADSVKGRFTISRDNAKNTVYLQMNSLKPEDTAVYYCAAKVGYTTALNYWGQGTQVTVSS”, the “polyreactivity (PSR sort gate)” value is reported as “high polyreactivity”. For “QVQLVESGGGLVQAGGSLRLSCAASGGIFKYNAMGWYRQSPGKERELVAAIDTSGGSTYYADSVKGRFTISRDNAKNTVYLQMNSLKPEDTAVYYCAAELGLAQYYYWGQGTQVTVSS”, the “polyreactivity (PSR sort gate)” value was “low polyreactivity”. In the case of “QVQLVESGGGLVQAGGSLRLSCAASGGIFLVNDMGWYRQAPGKERELVAAITSGGGTYYADSVKGRFTISRDNAKNTVYLQMNSLKPEDTAVYYCARDTYRQIVSNESYGYWGQGTQVTVSS”, the “polyreactivity (PSR sort gate)” value is reported as “low polyreactivity”. With “QVQLVESGGGLVQAGGSLRLSCAASGGIFNSNAMGWYRQAPGKEREFVAAITRSGTSTYYADSVKGRFTISRDNAKNSVYLQMNSLKPEDTAVYYWAADYRYRRYRGHVSNLYYWGQGTQVTVSS” the “polyreactivity (PSR sort gate)” value was “low polyreactivity”. For “QVQLVESGGGLVQAGGSLRLSCAASGGIFNTYAMGWYRQAPGKEREFVAAISRRGGGTYYADSVKGRFTISRDNAKNTVYLQMNSLKPEDTAVYYCNADDKRGSRGYGSDHWGQGTQVTVSS”, the “polyreactivity (PSR sort gate)” value was “high polyreactivity”. With “QVQLVESGGGLVQAGGSLRLSCAASGGIFPGNAMGWYRQAPGKERELVATISYSGGSTYYADSVKGRFTISRDYAKNTVYLQMNSLKPEDTAVYYCAARGYKPTRSRRTEYGYWGQGTQVTVSS” the “polyreactivity (PSR sort gate)” value was “high polyreactivity”. For “QVQLVESGGGLVQAGGSLRLSCAASGGIFPLYTMGWYRQATGKERELVASNTGSRASTYYADSVKGRFTISRDKAKNTVYLPMNSLNPEDTGVYDCKADVYVYSVTSHYPSYRLDYWGQGTQVTVAS”, the “polyreactivity (PSR sort gate)” value was “high polyreactivity”. In the case of “QVQLVESGGGLVQAGGSLRLSCAASGGIFPVNAMGWYRQAPGKERELVAAITWRGGRTYYADSVKGRFTISRDNSKNTVYLQMNSLKPEDTAVYYCAAYKGSSKYDYWGQGTQVTVSS”, the “polyreactivity (PSR sort gate)” value is reported as “high polyreactivity”. In the case of “QVQLVESGGGLVQAGGSLRLSCAASGGIFPYYAMGWYRQAPGKERELVADISSGGSTYYADSVKGRFTISRDNAKNTVYFQMNSLKPEDTAVYYCAADAGQYFTYSGDDNHDYWGQGTQVTVSS”, the “polyreactivity (PSR sort gate)” value is reported as “low polyreactivity”. In the case of “QVQLVESGGGLVQAGGSLRLSCAASGGIFPYYVMGWYRQAPGNEMELVAAINSGGTTYYADSVKGRFTISRDNAKNTVYLQMNILKPEDTAVYYCAAYYAGFGYNYWGQGTQVTVSS”, the “polyreactivity (PSR sort gate)” value is reported as “low polyreactivity”. In the case of “QVQLVESGGGLVQAGGSLRLSCAASGGIFQGYAMGWYRQAPGKERELVAGITSRSGSTYYADSVKGRFTISRDNAKNTVYLQMNSLKPEDTAVYYCAVRVYRSYGYWGQGTQVTVSS”, the “polyreactivity (PSR sort gate)” value is reported as “high polyreactivity”. With “QVQLVESGGGLVQAGGSLRLSCAASGGIFRGNAMGWYRQAPGKERELVAAISSSGGSTYYADSVKGRFTISRDNAKNTVYLQMNSLKPEDTAVYYCAATRYSTRFGARGYWGQGTQVTVSS” the “polyreactivity (PSR sort gate)” value was “high polyreactivity”. With “QVQLVESGGGLVQAGGSLRLSCAASGGIFRINAMGWYRQAPGKERELVAAITSSVGSTYYADSVKGRFTISRDNAKNTVYLQMNSLKPEDTAVYYCAAVITRDAIVFSTEYDYWGQGTQVTVSS” the “polyreactivity (PSR sort gate)” value was “low polyreactivity”. With “QVQLVESGGGLVQAGGSLRLSCAASGGIFRPYAMGWYRQSPGKEREMVAAITYNGGSTYYADSVKGRFTISRDNAKNTVYLQMNSLKPEDTGVYYCAARARSSRTYHDDYWGQGTQVTVSS” the “polyreactivity (PSR sort gate)” value was “high polyreactivity”. For “QVQLVESGGGLVQAGGSLRLSCAASGGIFRYYAMGWYRQAPGKERELVAAISKSGGRTYYADSVKGRFTISRDNAKNTVYLQMNSLKPEDTAVYYCNAEYTWHSGYDYWGQGTQVTVSS”, the “polyreactivity (PSR sort gate)” value was “low polyreactivity”. With “QVQLVESGGGLVQAGGSLRLSCAASGGIFSFKAMGWYIQAPGKERELVAAITTRGGSTYYADSVKGRFTISRDNAKNTVYLQMNSLKPEDTAVYYCAAEGYEEFNWGQGTQVTVSS” the “polyreactivity (PSR sort gate)” value was “low polyreactivity”. In the case of “QVQLVESGGGLVQAGGSLRLSCAASGGIFSGYAMGWYRQAPGKERELVAAISRRGGSTYYADSVKGRFTISRDNAKNTVYLQMNSLKPEDTAVYYFAKAYPYTCGQVTMYYWGQGTQVTVSS”, the “polyreactivity (PSR sort gate)” value is reported as “high polyreactivity”. With “QVQLVESGGGLVQAGGSLRLSCAASGGIFSLYAMGWYRQAPGKEREFVAAISFTGASTYYADSVKGRFTISRDNAKNTVYLQMNSLKPEDTAVYYCAAYWDAEGRRYTRLDYWGQGTQVTLSS” the “polyreactivity (PSR sort gate)” value was “low polyreactivity”. In the case of “QVQLVESGGGLVQAGGSLRLSCAASGGIFSSYVMGWYRQAPGKERELVAAIRWSGSSTYYADSVKGRFTISRDNAKNTVYLQMNSLKPEDTAVYYCAAYRDYGSYGSWGQGTQVTVSS”, the “polyreactivity (PSR sort gate)” value is reported as “high polyreactivity”.
